# Reference: patent US20250154231A1 (RQBIO COVID, published 2025)
# Like-named read-outs stand apart in the source and are kept apart here.
# Key:
# [1] = molecular target: T1, Omicron BA.2 RBD (SARS-CoV-2, UniProt P0DTC2 333-528)
# [2] = molecular target: T1, Omicron BA.2 RBD; remark: listed apart in the source
# [3] = molecular target: T1, Omicron BA.2 RBD; remark: listed apart in the source
# [4] = molecular target: T1, Omicron BA.2 RBD; remark: listed apart in the source
# [5] = molecular target: T1, Omicron BA.2 RBD; remark: listed apart in the source
# [6] = molecular target: T2, Omicron BA.2.12.1 RBD (SARS-CoV-2, UniProt P0DTC2 333-528)
# [7] = molecular target: T1, Omicron BA.2 RBD; remark: listed apart in the source
# [8] = molecular target: T2, Omicron BA.2.12.1 RBD; remark: listed apart in the source
# [9] = molecular target: T1, Omicron BA.2 RBD; remark: listed apart in the source
# [10] = molecular target: T1, Omicron BA.2 RBD; remark: listed apart in the source
# [11] = molecular target: T1, Omicron BA.2 RBD; remark: listed apart in the source
# [12] = molecular target: T1, Omicron BA.2 RBD; remark: listed apart in the source
# [13] = molecular target: T3, Omicron BA.1 RBD (SARS-CoV-2, UniProt P0DTC2 333-528); assay: ELISA
# T3 construct: domain: RBD
# [14] = molecular target: T1, Omicron BA.2 RBD; assay: SPR, single injection of RBD over the IgG
# [15] = molecular target: T3, Omicron BA.1 RBD; assay: crystal structure of the complex
# [16] = molecular target: T2, Omicron BA.2.12.1 RBD; assay: crystal structure of the ternary complex, 2.38 A
binder,measurement,setting,value
"Omi12 (antibody, V domains shown) VH: EVQLVESGPEVKKPGTSVKVSCKASGFSFSMSAMQWVRRARGQRLEWIGWIVPGSGNANYAQKFQERVTITRDESTNTGYMELSSLRSEDTAVYYCAAPHCNKTNCYDAFDIWGQGTMVTVSS VL: AIRMTQSPGTLSLSPGERATLSCRASQSVRSSYLAWYQQKPGQAPRLLIYGASTRATGIPDRFSGSGSGTDFILTINRLEPEDLAVYYCQQFGSSPWTFGQGTKVDIK",Kd,[1],0.13 nM
same,T1/2,[1],20 min
same,koff,[1],0.00058 s⁻¹
same,kon,[1],4.3e+06 M⁻¹ s⁻¹
"Omi-18 Fab (Fab, V domains shown) VH: QVQLVESGGGLIQPGGSLRLSCAASGITVSSNYMTWVRQAPGKGLEWVSLLYAGGSAFYADSVKGRFTISRDNSKNTLYLLMNSLRVGDTAVYYCARDLQVYGMDVWGQGTTVTVSS VL: SYELTQPPSVSVAPGQTARITCGGNNDGAKSVHWYQQKPGQAPVLVVYDDSDRPSGIPERFSGSNSGNTATLTITRIEAGDEADYYCQVWDSSRDHVFGTGTKVTVL",Kd,[2],4.3 nM
same,T1/2,[2],20 min
same,koff,[2],0.00057 s⁻¹
same,kon,[2],130000 M⁻¹ s⁻¹
"Omi-20 Fab (Fab, V domains shown) VH: EVQLVESGGGLVQPGGSLRLSCEASEITVSSNYMNWVRQAPGKGLEWVSVLFAGGTTYYADSVKGRFTISRDNSKNTLYLQMNTLRIEDTAIYYCARDLVAYGVDVWGQGTTVTVSS VL: AIQMTQSPSFLSASVGDRVTITCRASQGISGDLAWYQQKPGKAPKLLIYAASTLQSGVPSRFSGSGSGTEFTLTISSLQPEDFATYYCQHLNSYPLTFGGGTKVEIK",Kd,[3],138 nM
same,T1/2,[3],3.2 min
same,koff,[3],0.0036 s⁻¹
same,kon,[3],26000 M⁻¹ s⁻¹
"Omi-32 Fab (Fab, V domains shown) VH: EVQLVESGGGVVQPGRSLRLSCAASGFTFSNYGMHWVRQAPGKGLEWVAVYWYDGGNKFYADSVKGRFTISRDNSKNTLYLQMNSLRVEDTAVYYCARDTAPPDYWGQGTLVTVSS VL: AIRMTQSPGTLSLSPGERATLSCRASQSISSSFLAWYQQKPGQAPRLLIYGASSRATGIPDRFSGSGSGTDFTLTISRLEPEDFAVYYCQQYGTSPRLTFGGGTKVDIK",Kd,[4],5.9 nM
same,T1/2,[4],71 min
same,koff,[4],0.00016 s⁻¹
same,kon,[4],27000 M⁻¹ s⁻¹
"Omi06 (antibody, V domains shown) VH: EVQLLESGPGLVKPSETLSLTCTVSGGSISRYSWSWIRQPAGRGLEWIGRMYSSGGTNYNPSLESRVTMSLDTSKKQFSLKLSSVTAADTAVYYCAAASIDQVWGTYRDAFDIWGQGTMVTVSS VL: AIRMTQSPSSLAASVGDRVTISCRAGQSISSFLHWYQQKVGKAPKLLIYDASSLQSGVPSRFSGSGSGTDFTLTISSLQPEDFAAYYCQQSYENPLTFGGGTKVDIK",Kd,[5],1.3 nM
same,T1/2,[5],0.983 min
same,koff,[5],0.012 s⁻¹
same,kon,[5],9e+06 M⁻¹ s⁻¹
same,Kd,[6],19 nM
"Omi31 (antibody, V domains shown) VH: EVQLVQSGAEVKKPGSSVKVSCKASGGTFSSYGISWVRQAPGLGLEWMGGVIPILSAKHYAQRFQGRVTITADKSTGTAYMELSSLRSEDTAVYYCARDILHHDDLWGRFYYDGMDVWGQGTTVTVSS VL: not shown",Kd,[7],0.0032 nM
same,T1/2,[7],366 min
same,koff,[7],3.1e-05 s⁻¹
same,kon,[7],9.8e+06 M⁻¹ s⁻¹
same,Kd,[8],4.1 nM
same,T1/2,[8],0.733 min
same,koff,[8],0.016 s⁻¹
same,kon,[8],3.8e+06 M⁻¹ s⁻¹
"Omi03 (antibody, V domains shown) VH: EVQLVESGGGLIQPGGSLRLSCAASEIIVSRNYMSWVRQAPGKGLEWVSVIYSGGSTFYADSVKGRFTISRDNSKNTLYLQMNSLRAEDTAVYYCARDLDVVGGTDYWGQGTLVTVSS VL: not shown",Kd,[9],4.4 nM
same,T1/2,[9],2.9 min
"Omi-42 Fab (Fab, V domains shown) VH: EVQLLETGGGLVQPGRSLRLSCAASGFPFDDYAIHWVRLAPGKGLEWVSSISWDSGSIGYADSVKGRFTISRDNAKNSLYLQMNSLRAEDTALYYCAKGAFPGYSSGWYYGLDVWGQGATVTVSS VL: QSVVTQPPSASGSLGQSVTISCTGTSSDVGGYNYVSWYQQHPGKAPKLMIFEVSKRPSGVPDRFSGSKSGNTASLTVSGLQAEDEADYYCSSYAGNKGVFGGGTKLTVL",Kd,[10],0.99 nM
same,T1/2,[10],131 min
same,koff,[10],8.8e-05 s⁻¹
same,kon,[10],89000 M⁻¹ s⁻¹
"Omi20 (antibody, V domains shown) VH: EVQLVESGGGLVQPGGSLRLSCEASEITVSSNYMNWVRQAPGKGLEWVSVLFAGGTTYYADSVKGRFTISRDNSKNTLYLQMNTLRIEDTAIYYCARDLVAYGVDVWGQGTTVTVSS VL: AIQMTQSPSFLSASVGDRVTITCRASQGISGDLAWYQQKPGKAPKLLIYAASTLQSGVPSRFSGSGSGTEFTLTISSLQPEDFATYYCQHLNSYPLTFGGGTKVEIK",Kd,[11],2.4 nM
same,T1/2,[11],5.6 min
same,koff,[11],0.0021 s⁻¹
same,kon,[11],870000 M⁻¹ s⁻¹
"Fab Beta-54 (Fab, V domains shown) VH: QVQLQESGPGLVKPSETLSLTCTVFGGSITSSNHYWVWIRQPPGKGLEWIGSMYYSGSTAYNPSLTNRVTISVDTSKNQFSLKLSSVTAADTAVYYCARQIGPKRPSQVADWFDPWGQGTLVTVSS VL: not shown",Kd,[12],44 nM
same,T1/2,[12],2.3 min
same,koff,[12],0.005 s⁻¹
same,kon,[12],110000 M⁻¹ s⁻¹
"Omi36 (antibody, V domains shown) VH: EVQLVESGGGVVQPGGSLRLSCAASGIIVSANYMTWVRQAPGKGLEWVSVIYPGGSTFYADSVKGRFTISRDNSKNTLYLQMNSLRVEDSAVYYCARDLELAGFNDYWGQGTLVTVSS VL: DIVMTQSPGTLSLSPGERATLSCRTSQSVSSNYLAWYQQKPGQAPRLLIYGASSRATGIPDRFSGSGSGTDFTLTISRLEPEDFAVYYCQQFGSSPRYTFGQGTKVEIK",binding result,[13],binds
same,binding result,[14],binds
"Omi-9 Fab (Fab, V domains shown) VH: QVQLVESGGGVVQPGRSLRLSCAASGFTFRTYAVHWVRQAPGKGPEWVAVISYDGSNKYYADSVKGRFTLSRDTSKNTLYLQMNSLRAEDTAVYYCASRGDTVTTGDAFDIWGQGTMVTVSS VL: SYELTQPPSVSVSPGQTARITCSGDALPKQYTYWYQQKPGQPPVLVIYKDSERPSGIPERFSGSSSGTTVTLTISGVQAEDEADYYCQSTDSSATYPGNVVFGGGTKLTVL",binding result,[15],binds
"Beta-27 Fab (Fab, V domains shown) VH: EVQLLESGGGLVQPGGSLRLSCAASGLTVRSNYMNWVRQAPGKGLEWVSLIYSGGSTFYADSVKGRFTISRHDSKNTLYLQMNSLRAEDTAVYYCARDLVVYGMDVWGQGTTVTVSS VL: DIQMTQSPGTLSLSPGERATLSCRASQSVSSSSLAWYQQKHGQAPRLLIYGTSSRATGIPDRFSGSGSGTDFTLTISGLEPEDFAVYYCQQYGSSPLFGGGTKVEIK",binding result,[16],binds
"Omi08 (antibody, V domains shown) VH: EVQLVESGAEVKRPGASVKVSCKASGYTFTNYFMHWVRQAPGQGLEWMGVINPSDGGASYPQKFQGRVTMTRDTSTSTVYMDLSSLRSEDTAVYSCARGAFDVSGSWYVPFDYWGQGTLVTVSS VL: QSVVTQPPSVSGAPGQRVTISCTGSSSNIGAGYDVHWYQQLPGAAPKLLIYGNTNRPSGVPDRFSGSKSGTSASLAITGLQAEDEADYYCQSYDITLSGSGYVFGTGTKVTVL",binding result,[13],binds
"Omi09 (antibody, V domains shown) VH: QVQLVESGGGVVQPGRSLRLSCAASGFTFRTYAVHWVRQAPGKGPEWVAVISYDGSNKYYADSVKGRFTLSRDTSKNTLYLQMNSLRAEDTAVYYCASRGDTVTTGDAFDIWGQGTMVTVSS VL: SYELTQPPSVSVSPGQTARITCSGDALPKQYTYWYQQKPGQPPVLVIYKDSERPSGIPERFSGSSSGTTVTLTISGVQAEDEADYYCQSTDSSATYPGNVVFGGGTKLTVL",binding result,[13],binds
